Patent US20040086528A1 (PROGENICS PHARMACEUTICALS, published 2004)

Tests used:
Assay in all cases: cell-based or functional assay
[1] = biological target: T1, CCR5 Q188A, HA-tagged (human, UniProt P51681 1-352)
T1 sequence: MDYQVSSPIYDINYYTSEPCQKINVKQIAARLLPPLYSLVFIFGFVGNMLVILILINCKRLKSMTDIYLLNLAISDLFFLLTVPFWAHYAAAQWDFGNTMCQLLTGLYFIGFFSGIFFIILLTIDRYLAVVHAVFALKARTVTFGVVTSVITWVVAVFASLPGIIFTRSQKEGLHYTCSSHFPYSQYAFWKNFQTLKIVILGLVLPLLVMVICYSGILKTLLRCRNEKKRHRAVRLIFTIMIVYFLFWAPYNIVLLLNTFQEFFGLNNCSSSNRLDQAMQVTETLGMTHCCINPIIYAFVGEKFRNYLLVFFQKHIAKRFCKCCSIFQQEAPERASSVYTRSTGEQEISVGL

[2] = biological target: T2, CCR5 Q102A, HA-tagged (human, UniProt P51681 1-352)
T2 sequence: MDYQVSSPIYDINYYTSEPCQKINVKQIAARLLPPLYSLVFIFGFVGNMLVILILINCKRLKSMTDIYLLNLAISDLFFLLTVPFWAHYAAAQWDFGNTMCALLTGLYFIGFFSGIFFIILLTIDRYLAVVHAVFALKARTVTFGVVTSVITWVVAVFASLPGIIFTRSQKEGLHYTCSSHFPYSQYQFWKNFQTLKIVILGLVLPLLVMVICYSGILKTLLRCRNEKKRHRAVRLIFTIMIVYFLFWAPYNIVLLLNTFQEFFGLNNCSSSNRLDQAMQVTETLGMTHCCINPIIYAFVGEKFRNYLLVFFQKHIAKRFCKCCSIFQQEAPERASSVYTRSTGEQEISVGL

[3] = biological target: T3, CCR5 R31A, HA-tagged (human, UniProt P51681 1-352)
T3 sequence: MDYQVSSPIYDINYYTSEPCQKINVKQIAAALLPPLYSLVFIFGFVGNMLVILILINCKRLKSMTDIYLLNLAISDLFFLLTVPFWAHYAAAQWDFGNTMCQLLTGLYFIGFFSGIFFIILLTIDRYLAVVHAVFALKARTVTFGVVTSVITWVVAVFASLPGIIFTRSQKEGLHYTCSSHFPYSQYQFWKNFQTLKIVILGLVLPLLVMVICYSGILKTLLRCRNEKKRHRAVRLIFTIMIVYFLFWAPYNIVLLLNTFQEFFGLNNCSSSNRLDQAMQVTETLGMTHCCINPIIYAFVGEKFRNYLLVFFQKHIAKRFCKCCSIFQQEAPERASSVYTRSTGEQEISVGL

[4] = biological target: wild-type CCR5, HA-tagged at the C-terminus (human, UniProt P51681 1-352)
[5] = biological target: T4, CCR5 N13A, HA-tagged (human, UniProt P51681 1-352)
T4 sequence: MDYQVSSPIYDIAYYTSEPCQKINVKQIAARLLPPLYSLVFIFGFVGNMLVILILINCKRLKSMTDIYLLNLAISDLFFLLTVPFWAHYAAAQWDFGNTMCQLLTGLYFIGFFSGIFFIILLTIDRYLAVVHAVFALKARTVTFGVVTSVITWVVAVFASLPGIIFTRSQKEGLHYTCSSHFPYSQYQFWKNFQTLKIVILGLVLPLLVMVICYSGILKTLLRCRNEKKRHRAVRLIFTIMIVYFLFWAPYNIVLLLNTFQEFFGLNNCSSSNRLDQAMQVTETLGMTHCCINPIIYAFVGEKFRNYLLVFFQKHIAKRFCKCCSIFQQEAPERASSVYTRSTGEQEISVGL

B1: macrophage inflammatory protein (MIP)-1β, recombinant human (ligand, UniProt P13236 24-92, looked up)
chain: APMGSDPPTACCFSYTARKLPRNFVVDYYETSSLCSQPAVVFQTKRSKQVCADPSESWVQEYVYDLELN
[1]
  relative % inhibition of NLluc/JR-FL entry into U87MG-CD4 cells by 2 µg/ml chemokine (wild-type = 100): 75%
[2]
  relative % inhibition of NLluc/JR-FL entry into U87MG-CD4 cells by 2 µg/ml chemokine (wild-type = 100): 98%
[3]
  relative % inhibition of NLluc/JR-FL entry into U87MG-CD4 cells by 2 µg/ml chemokine (wild-type = 100): 2%
[4]
  relative % inhibition of NLluc/JR-FL entry into U87MG-CD4 cells by 2 µg/ml chemokine (wild-type = 100): 100%
[5]
  relative % inhibition of NLluc/JR-FL entry into U87MG-CD4 cells by 2 µg/ml chemokine (wild-type = 100): 93%

B2: RANTES, recombinant human (ligand)
chain: SPYSSDTTPCCFAYIARPLPRAHIKEYFYTSGKCSNPAVVFVTRKNRQVCANPEKKWVREYINSLEMS
[1]
  relative % inhibition of NLluc/JR-FL entry into U87MG-CD4 cells by 2 µg/ml chemokine (wild-type = 100): 51%
[2]
  relative % inhibition of NLluc/JR-FL entry into U87MG-CD4 cells by 2 µg/ml chemokine (wild-type = 100): 93%
[3]
  relative % inhibition of NLluc/JR-FL entry into U87MG-CD4 cells by 2 µg/ml chemokine (wild-type = 100): -16%
[4]
  relative % inhibition of NLluc/JR-FL entry into U87MG-CD4 cells by 2 µg/ml chemokine (wild-type = 100): 100%
[5]
  relative % inhibition of NLluc/JR-FL entry into U87MG-CD4 cells by 2 µg/ml chemokine (wild-type = 100): 92%
